Results: patent US20200190151A1 (Scripps Research, published 2020)
No end group written: not given here.

Biological target: T1, Kv1.3 (human potassium voltage-gated channel subfamily A member 3) (human, UniProt P22001 1-575)
T1 construct: whole, on cells
Assay: immunofluorescence staining of Kv1.3 expressing HEK293F cells, flow cytometry

T1 sequence (P22001 whole entry): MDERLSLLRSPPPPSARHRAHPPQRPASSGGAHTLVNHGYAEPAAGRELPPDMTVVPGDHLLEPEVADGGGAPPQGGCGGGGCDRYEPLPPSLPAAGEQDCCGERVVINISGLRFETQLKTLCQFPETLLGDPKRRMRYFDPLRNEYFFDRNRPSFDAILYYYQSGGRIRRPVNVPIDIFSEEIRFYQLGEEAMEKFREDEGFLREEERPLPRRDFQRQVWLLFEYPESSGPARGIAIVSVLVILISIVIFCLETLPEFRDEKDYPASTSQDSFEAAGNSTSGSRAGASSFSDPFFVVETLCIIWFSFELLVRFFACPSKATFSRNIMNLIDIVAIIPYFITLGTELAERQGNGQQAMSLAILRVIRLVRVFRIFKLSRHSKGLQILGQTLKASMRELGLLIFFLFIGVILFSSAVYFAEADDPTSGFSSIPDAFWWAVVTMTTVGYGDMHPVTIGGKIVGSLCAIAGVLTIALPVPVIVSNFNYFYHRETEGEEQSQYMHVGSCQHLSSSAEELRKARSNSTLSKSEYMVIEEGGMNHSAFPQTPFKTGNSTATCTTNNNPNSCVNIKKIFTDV

B1: CllTx1-Fc fusion protein (Fc fusion)
chain: ITINVKCTSPQQCLRPCKDRFGQHAGGKCINGKCKCYP
modifications: ends and bridges not checked; also: fused to human IgG1 Fc fragment, limits and linker not given here
notes: mature; also called recombinant CllTx1-Fc fusion protein; not shown: human IgG1 Fc fragment
- binding result: binds
